This assay addresses SARS-CoV-2 Spike RBD (residues 334–527), C-terminal Avi-His6 tag, biotinylated (SARS-CoV-2) (UniProt P0DTC2). The assay is described as follows: BLI.

In publication PMC8420576 one finds Kd and koff data, which are given here for 1 substance.

A word on the Kd: it is the equilibrium constant for the complex coming apart. Read a high Kd as lower affinity. One may read the koff as a measure of how fast the partners let go of each other. VHH72 returned a Kd of 27 nM and an off-rate constant (koff) of 0.0036 s⁻¹.
